Laboratory results as given in publication PMC12436594, “Probing three-dimensional cyclooctatetraene for nucleobase modification in aptamer selection”.

Molecular target: PvLDH (lactate dehydrogenase) (Plasmodium vivax, UniProt Q4PRK9 1-316)
Assay: flow cytometry (Ni-NTA beads)
Conditions: protein: recombinant; tags: His6; chain copies: 4

B1: N15 unmodified (ssDNA)
DNA: CACTCACGTCAGTGACATGCAGGTCCTCTCGCCCCCAGTGACTTGCGTGGTCAGAAATTTCGCACCAC
Kd: ~208 nM
